Results on one molecule are retold here after patent US20190218304A1, “POTENTIATING THE EFFECT OF ATP RELEASE” (INNATE PHARMA, priority 2017, published 2019).

Test [1] deals with CD39 mutants (Table 1) expressed in Hek-293T cells. Kind of test: Epitope mapping: flow cytometry binding to CD39 mutants in Hek-293T cells. Also noted: species or system human. As to the method:
CD39 mutants were generated by PCR. The sequences amplified were run on agarose gel and purified using the Macherey Nagel PCR Clean-Up Gel Extraction kit (reference 740609). The purified PCR products generated for each mutant were then ligated into an expression vector, with the ClonTech InFusion system. The vectors containing the mutated sequences were prepared as Miniprep and sequenced. After sequencing, the vectors containing the mutated sequences were prepared as Midiprep using the Promega PureYield™ Plasmid Midiprep System. HEK293T cells were grown in DMEM medium (Invitrogen), transfected with vectors using Invitrogen's Lipofectamine 2000 and incubated at 37° C. in a […] incubator for 48 hours prior to testing for transgene expression. The targeted amino acid mutations in the table 1 below are shown using numbering of SEQ ID NO: 1.
In order to define the epitopes of anti-CD39 antibodies, we designed CD39 mutants defined by substitutions of amino acids exposed at the molecular surface over the surface of CD39.
Mutant 5 contains amino acid substitutions at residues Q96, N99, E143 and R147.
Mutants were transfected in Hek-293T cells, as shown in the table 1, using numbering of SEQ ID NO: 1. […] Mutant 19 includes substitutions at residues R138, M139 and E142.
Mutants were transfected in Hek-293T cells, as shown in the table 1, using numbering of SEQ ID NO: 1. […]

Test [2] has as its target T1, soluble recombinant human CD39 protein (Homo sapiens, UniProt P49961).
T1 construct: made in house; host or cells: CHO cells
T1 sequence (P49961 with tags, fused parts or gaps): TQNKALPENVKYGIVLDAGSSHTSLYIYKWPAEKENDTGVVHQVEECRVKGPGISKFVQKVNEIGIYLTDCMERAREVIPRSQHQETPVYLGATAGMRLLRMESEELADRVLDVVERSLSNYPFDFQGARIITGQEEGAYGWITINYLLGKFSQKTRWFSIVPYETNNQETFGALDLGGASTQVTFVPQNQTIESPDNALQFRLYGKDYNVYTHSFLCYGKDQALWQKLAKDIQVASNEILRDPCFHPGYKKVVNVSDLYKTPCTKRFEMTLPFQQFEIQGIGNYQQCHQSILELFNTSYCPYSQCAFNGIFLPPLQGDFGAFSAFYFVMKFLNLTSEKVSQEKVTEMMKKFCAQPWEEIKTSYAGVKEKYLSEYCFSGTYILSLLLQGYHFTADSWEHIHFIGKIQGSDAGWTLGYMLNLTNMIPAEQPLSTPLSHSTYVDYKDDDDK
Kind of test: Inhibition of the enzymatic activity of soluble CD39 (Cell Titer Glo). Format: biochemical. The note with it: result in words. How it is done: The inhibition by antibodies of the enzymatic activity of soluble CD39 protein produced was evaluated using Cell Titer Glo™ (Promega, reference G7571) that allows assessment of ATP hydrolysis through use of a reagent that generates a luminescent signal proportional to the amount of ATP present. In this way, inhibition of the soluble-CD39-meidatd ATP hydrolysis can be assessed. Briefly, dose ranges of anti-CD39 antibodies from 100 μg/ml to 6×10^−3 μg/ml were incubated with 400 ng/ml of soluble recombinant human CD39 protein having the amino acid sequence described in the Methods section (SEQ ID NO: 39), for 1 h at 37° C. 20 μM ATP was added to the plates for 30 additional minutes at 37° C. before addition of CTG (Cell Titer Glo) reagent. Emitted light was quantified using an Enspire™ luminometer after a short incubation period of 5 min in the dark. Anti-CD39 antibody efficacy was determined by comparing emitted light in presence of antibody with ATP alone (maximal light emission) and ATP together with soluble CD39 protein (minimal light emission).
For orientation: In ATP-based viability assays light output follows the ATP content of the culture.

B1: I-399: anti-CD39 antibody, VH SEQ ID NO: 27, VL SEQ ID NO: 28 (antibody, listed as Mus musculus, V domains shown)
VH: PVQLQQPGAEVVMPGASVKLSCKASGYTFTSFWMNWMRQRPGQGLEWIGEIDPSDFYTNSNQRFKGKATLTVDKSSSTAYMQLSSLTSEDSAVYFCARGDFGWYFDVWGTGTSVTVSS
VL: EIVLTQSPTTMTSSPGEKITFTCSASSSINSNYLHWYQQKPGFSPKLLIYRTSNLASGVPTRFSGSGSGTSYSLTIGTMEAEDVATYYCQQGSSLPRTFGGGTKLEIK
Take B1: the “binding to cells expressing mutant 11 of CD39” value in test [1] (mutant 11: N371K, L372K, E375A, K376G, V377A and insertion 377V) was “loss of binding”. Also, the “binding to the other CD39 mutants of Table 1” value in test [1] (remaining mutants of the 20 generated) is reported as “without loss of binding to any of the other 20 mutants”. For the same molecule, the “inhibition of the enzymatic (ATPase) activity of soluble CD39 protein” value in test [2] is “inhibition of soluble CD39”.
